US20210363215A1 (published 2021)

T1: MAGE-B2 (peptide MB2-231) peptide on HLA-A*02:01 (human)
T1 peptide: GVYDGEEHSV

B1: MAGE-B2 TCR of SEQ ID NOs 3 and 5 (TCR, V domains shown)
Valpha: GNSVTQMEGPVTLSEEAFLTINCTYTATGYPSLFWYVQYPGEGLQLLLKATKADDKGSNKGFEATYRKETTSFHLEKGSVQVSDSAVYFCALTNDYKLSFGAGTTVTVRA
Vbeta: DAMVIQNPRYQVTQFGKPVTLSCSQTLNHNVMYWYQQKSSQAPKLLFHYYDKDFNNEADTPDNFQSRRPNTSFCFLDIRSPGLGDAAMYLCATSRGGRYNEQFFGPGTRLTVL
B2: MAGE-B2-231 C5 TCR (TCR, V domains shown)
Valpha: KNQVEQSPQSLIILEGKNCTLQCNYTVSPFSNLRWYKQDTGRGPVSLTIMTFSENTKSNGRYTATLDADTKQSSLHITASQLSDSASYICVVISGFQKLVFGTGTRLLVSP
Vbeta: EAGVVQSPRYKIIEKKQPVAFWCNPISGHNTLYWYRQNLGQGPELLIRYENEEAVDDSQLPKDRFSAERLKGVDSTLKIQPAELGDSAVYLCASSFPKQGSYNEQFFGPGTRLTVL

Biological target: T1, MAGE-B2 (peptide MB2-231) peptide on …
Assay: multimer staining

Row | Binder | binding result
1 | B1 | recognises
2 | B2 | recognises
